# Results reported in FireProtDB (doi:10.1021/bi960863y).
# Conditions: Escherichia coli (strain K12), pH 7, Urea, CD, Potassium phosphate 10 mM, reversible: yes (>95%)
substance,measurement,setting,value
"Phosphocarrier protein HPr wild type, P0AA04",denaturant m value,0 °C,1.29 kcal/mol/M
same,denaturant midpoint (higher = more stable),0 °C,4 M
same,unfolding free energy,0 °C,4.63 kcal/mol
same,denaturant m value,5 °C,1.18 kcal/mol/M
same,denaturant midpoint (higher = more stable),5 °C,4.38 M
same,unfolding free energy,5 °C,5.08 kcal/mol
same,denaturant m value,10 °C,1.36 kcal/mol/M
same,denaturant midpoint (higher = more stable),10 °C,4.58 M
same,unfolding free energy,10 °C,5.31 kcal/mol
same,denaturant m value,25 °C,1.19 kcal/mol/M
same,denaturant midpoint (higher = more stable),25 °C,4.58 M
same,unfolding free energy,25 °C,5.31 kcal/mol
same,denaturant m value,30 °C,1.14 kcal/mol/M
same,denaturant midpoint (higher = more stable),30 °C,4.32 M
same,unfolding free energy,30 °C,5 kcal/mol
same,denaturant m value,35 °C,1.01 kcal/mol/M
same,denaturant midpoint (higher = more stable),35 °C,4.04 M
same,unfolding free energy,35 °C,4.68 kcal/mol
same,denaturant m value,40 °C,1.06 kcal/mol/M
same,denaturant midpoint (higher = more stable),40 °C,3.58 M
same,unfolding free energy,40 °C,4.14 kcal/mol
same,denaturant m value,45 °C,1.01 kcal/mol/M
same,denaturant midpoint (higher = more stable),45 °C,2.9 M
same,unfolding free energy,45 °C,3.37 kcal/mol
same,denaturant m value,50 °C,1.11 kcal/mol/M
same,denaturant midpoint (higher = more stable),50 °C,2.09 M
same,unfolding free energy,50 °C,2.42 kcal/mol
